Test results reported in paper PMC11352460, “RILP Induces Cholesterol Accumulation in Lysosomes by Inhibiting Endoplasmic Reticulum–Endolysosome Interactions” (Cells, 2024).

Legend:
His-ORP1L = target: T1, His-ORP1L (UniProt Q9BXW6-1 1-950); assay: pull-down; in vitro binding: purified prokaryotic expressed His-ORP1L or His-ORP1L(336-950aa) with increasing amounts of His-RILP, incubated with GST-VAPa(1-225aa) retained on GST beads; ORP1L bound assessed by Western blot; details: both partners purified
T1 construct: ORP1L in pET-28a; source: prokaryotic expressed, purified
T1 sequence (looked up): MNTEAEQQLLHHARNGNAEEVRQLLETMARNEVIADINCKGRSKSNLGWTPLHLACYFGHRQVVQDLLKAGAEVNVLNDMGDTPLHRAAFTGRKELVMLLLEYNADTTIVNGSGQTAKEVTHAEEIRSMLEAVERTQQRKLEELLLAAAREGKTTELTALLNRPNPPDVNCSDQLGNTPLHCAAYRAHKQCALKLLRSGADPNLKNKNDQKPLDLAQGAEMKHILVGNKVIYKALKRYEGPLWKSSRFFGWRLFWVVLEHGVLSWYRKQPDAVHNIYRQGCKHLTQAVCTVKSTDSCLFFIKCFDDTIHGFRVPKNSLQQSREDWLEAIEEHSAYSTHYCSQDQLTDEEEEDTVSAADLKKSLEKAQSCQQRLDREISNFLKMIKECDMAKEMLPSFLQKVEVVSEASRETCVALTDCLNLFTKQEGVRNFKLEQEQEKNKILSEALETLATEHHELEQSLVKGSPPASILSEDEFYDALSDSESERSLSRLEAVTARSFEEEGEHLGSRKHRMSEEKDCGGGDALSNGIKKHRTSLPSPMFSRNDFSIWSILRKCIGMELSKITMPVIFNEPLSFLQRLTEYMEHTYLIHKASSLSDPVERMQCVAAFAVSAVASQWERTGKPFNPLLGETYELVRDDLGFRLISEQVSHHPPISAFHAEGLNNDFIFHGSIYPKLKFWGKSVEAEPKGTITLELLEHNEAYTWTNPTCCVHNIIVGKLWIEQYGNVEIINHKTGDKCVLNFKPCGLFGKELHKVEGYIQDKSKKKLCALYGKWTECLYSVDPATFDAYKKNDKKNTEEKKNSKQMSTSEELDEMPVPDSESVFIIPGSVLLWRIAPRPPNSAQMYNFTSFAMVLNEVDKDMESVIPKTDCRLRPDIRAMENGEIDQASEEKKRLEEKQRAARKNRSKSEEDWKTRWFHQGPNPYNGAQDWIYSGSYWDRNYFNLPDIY

His-ORP1L(336-950aa) = target: T2, His-ORP1L(336-950aa) (UniProt Q9BXW6-1 336-950); assay: as above; details: both partners purified
T2 construct: source: prokaryotic expressed, purified
T2 sequence (looked up): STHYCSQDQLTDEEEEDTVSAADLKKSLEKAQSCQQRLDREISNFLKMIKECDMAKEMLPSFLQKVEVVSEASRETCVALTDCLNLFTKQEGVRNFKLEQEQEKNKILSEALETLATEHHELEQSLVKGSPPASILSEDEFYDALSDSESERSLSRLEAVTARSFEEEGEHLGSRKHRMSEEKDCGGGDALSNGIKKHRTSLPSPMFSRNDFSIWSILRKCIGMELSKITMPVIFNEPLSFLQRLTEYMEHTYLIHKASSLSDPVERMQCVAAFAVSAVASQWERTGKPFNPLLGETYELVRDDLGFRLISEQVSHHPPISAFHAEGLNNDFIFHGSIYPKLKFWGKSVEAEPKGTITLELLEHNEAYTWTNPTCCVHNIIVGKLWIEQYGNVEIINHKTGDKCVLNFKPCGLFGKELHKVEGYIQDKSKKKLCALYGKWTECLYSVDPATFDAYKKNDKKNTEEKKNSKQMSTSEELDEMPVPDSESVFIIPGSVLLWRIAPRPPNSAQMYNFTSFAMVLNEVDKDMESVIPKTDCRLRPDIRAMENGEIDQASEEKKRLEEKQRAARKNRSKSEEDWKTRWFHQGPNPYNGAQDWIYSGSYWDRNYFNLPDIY

B1: GST-VAPa(1-225aa) (domain or fragment, UniProt Q9P0L0 1-225, looked up)
chain: MASASGAMAKHEQILVLDPPTDLKFKGPFTDVVTTNLKLRNPSDRKVCFKVKTTAPRRYCVRPNSGIIDPGSTVTVSVMLQPFDYDPNEKSKHKFMVQTIFAPPNTSDMEAVWKEAKPDELMDSKLRCVFEMPNENDKLNDMEPSKAVPLNASKQDGPMPKPHSVSLNDTETRKLMEECKRLQGEMMKLSEENRHLRDEGLRLRKVAHSDKPGSTSTASFRDNVT
notes: VAP-A (vesicle-associated membrane protein-associated protein A) residues 1-225, the cytoplasmic region; subcloned into pGEX-4T-1; also called GST-tagged VAP-A(1-225aa); source: prokaryotic expressed, retained on GST beads (GST-Sepharose 4B resin)
His-ORP1L
  binding result: binds
His-ORP1L(336-950aa)
  binding result: binds

B2: His-RILP (natural protein, UniProt Q96NA2 1-401, looked up)
chain: MEPRRAAPGVPGWGSREAAGSASAAELVYHLAGALGTELQDLARRFGPEAAAGLVPLVVRALELLEQAAVGPAPDSLQVSAQPAEQELRRLREENERLRRELRAGPQEERALLRQLKEVTDRQRDELRAHNRDLRQRGQETEALQEQLQRLLLVNAELRHKLAAMQTQLRAAQDRERERQQPGEAATPQAKERARGQAGRPGHQHGQEPEWATAGAGAPGNPEDPAEAAQQLGRPSEAGQCRFSREEFEQILQERNELKAKVFLLKEELAYFQRELLTDHRVPGLLLEAMKVAVRKQRKKIKAKMLGTPEEAESSEDEAGPWILLSDDKGDHPPPPESKIQSFFGLWYRGKAESSEDETSSPAPSKLGGEEEAQPQSPAPDPPCSALHEHLCLGASAAPEA
notes: RILP in pET-28a; source: prokaryotic expressed, purified
His-ORP1L(336-950aa)
  binding result: binds
